In test [1] the target is Plk1 (UniProt P53350). Description: co-IP of FLAG-Ataxin-10 and HA-Plk1. The settings on record: reference: wild type; sites S12.
In test [2] the target is Plk1 (UniProt P53350). Description: GST pull-down of His-Plk1. To be noted: reference: wild type; sites S12.

Ataxin-10 (from UniProt Q9UBB4) S12A: the other: percent decrease vs wild type with Plk1 [1] came to 30%; in the test with Plk1 [2] it was 20%.

The values above are taken from paper PMC4322367.
